Consider four molecules from patent US20180346600A1 (AJOU UNIVERSITY INDUSTRY ACADEMIC COOPERATION FOUNDATION, published 2018).

The target of test [1] is T1, displayed FcCH3A, B239 (K392L/D399L), on yeast cell surface (human, UniProt P0DOX5 227-449 = IgG part).
T1 construct: also called B239 CH3A chain (yeast)
T1 Fc: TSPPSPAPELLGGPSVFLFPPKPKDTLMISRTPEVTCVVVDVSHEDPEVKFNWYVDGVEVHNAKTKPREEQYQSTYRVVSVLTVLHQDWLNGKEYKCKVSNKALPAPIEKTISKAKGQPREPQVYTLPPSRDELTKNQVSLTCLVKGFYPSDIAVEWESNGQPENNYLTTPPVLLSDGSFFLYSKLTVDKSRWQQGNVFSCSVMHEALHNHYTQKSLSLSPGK
The experiment in a line: flow cytometry of diploid yeast: MFI of Flag-tagged secreted FcCH3B held on displayed FcCH3A (anti-Flag mouse mAb and PE anti-mouse antibody), normalised to EW-RVT = 100 %. The source says:
(§1) FACS was sequentially performed four times. […] Table 9 below summarizes the mutation pairs introduced into individual clones selected from the respective LibA2 and LibB2 libraries.
(Flow cytometry measures light scatter and fluorescence of single cells or particles in a stream.)

Test [2] concerns the target T2, Hole-Hole (displayed FcCH3A on yeast cell surface).
T2 construct: also called Hole-Hole (Genentech) CH3A chain (yeast), T366S/L368A/Y407V
T2 Fc: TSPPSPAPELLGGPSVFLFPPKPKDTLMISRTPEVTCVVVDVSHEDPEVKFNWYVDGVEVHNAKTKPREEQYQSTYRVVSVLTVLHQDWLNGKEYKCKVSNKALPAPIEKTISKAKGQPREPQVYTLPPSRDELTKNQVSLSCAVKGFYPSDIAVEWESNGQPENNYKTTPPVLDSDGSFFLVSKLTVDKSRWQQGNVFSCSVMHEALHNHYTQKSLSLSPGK
As to the kind of experiment: flow cytometry histogram (PE, FL2-H) of diploid yeast: Flag-tagged secreted FcCH3B held on displayed FcCH3A, anti-Flag mouse mAb and PE anti-mouse antibody. The protocol: Specifically, the diploid in which the expression of the heterodimeric heavy chain constant region was induced was reacted with an antibody recognizing flag-tag included in the secreted FcCH3B (anti-Flag mouse mAb, F3165) (Sigma-Aldrich) and an antibody conjugated with PE (phycoerythrin conjugated anti-mouse mAb, sc-3738) (Santa Cruz biotechnology), and a signal of PE was analyzed by flow cytometry.

The target in test [3] is T3, displayed FcCH3A, B240 (K392S/K409R/D399L), on yeast cell surface (human, UniProt P0DOX5 227-449 = IgG part).
T3 construct: also called B240 CH3A chain (yeast)
T3 Fc: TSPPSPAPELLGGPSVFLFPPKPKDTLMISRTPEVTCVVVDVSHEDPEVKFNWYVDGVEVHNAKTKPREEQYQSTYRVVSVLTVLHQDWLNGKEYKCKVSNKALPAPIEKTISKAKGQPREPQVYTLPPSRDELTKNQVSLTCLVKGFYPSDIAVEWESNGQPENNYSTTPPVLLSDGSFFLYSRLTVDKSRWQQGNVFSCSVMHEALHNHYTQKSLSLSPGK
The experiment in a line: flow cytometry of diploid yeast: MFI of Flag-tagged secreted FcCH3B held on displayed FcCH3A (anti-Flag mouse mAb and PE anti-mouse antibody), normalised to EW-RVT = 100 %.
Text: as §1

Test [4] addresses T4, displayed FcCH3A, B256 (K392N/D399L), on yeast cell surface (human, UniProt P0DOX5 227-449 = IgG part).
T4 construct: also called B256 CH3A chain (yeast)
T4 Fc: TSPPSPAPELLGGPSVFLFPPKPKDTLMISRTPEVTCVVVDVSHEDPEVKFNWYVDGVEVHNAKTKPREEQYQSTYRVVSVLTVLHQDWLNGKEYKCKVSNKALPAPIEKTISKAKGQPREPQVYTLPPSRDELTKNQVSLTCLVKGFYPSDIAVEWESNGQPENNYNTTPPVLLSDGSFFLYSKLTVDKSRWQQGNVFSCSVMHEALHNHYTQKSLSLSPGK
The test is described as above.
Text: as §1

B1: secreted FcCH3B, B239 (D399S/K392G/K409M), from yeast (other)
chain: TSPPSPAPELLGGPSVFLFPPKPKDTLMISRTPEVTCVVVDVSHEDPEVKFNWYVDGVEVHNAKTKPREEQYQSTYRVVSVLTVLHQDWLNGKEYKCKVSNKALPAPIEKTISKAKGQPREPQVYTLPPSRDELTKNQVSLTCLVKGFYPSDIAVEWESNGQPENNYGTTPPVLSSDGSFFLYSMLTVDKSRWQQGNVFSCSVMHEALHNHYTQKSLSLSPGK
notes: also called B239 CH3B chain (yeast); not shown: flag-tag
As for B1, in test [1], the binding result was “binds”.

B2: Hole-Hole (secreted FcCH3B from yeast) (other)
secreted Fc chain (hinge-CH2-CH3B): TSPPSPAPELLGGPSVFLFPPKPKDTLMISRTPEVTCVVVDVSHEDPEVKFNWYVDGVEVHNAKTKPREEQYQSTYRVVSVLTVLHQDWLNGKEYKCKVSNKALPAPIEKTISKAKGQPREPQVYTLPPSRDELTKNQVSLSCAVKGFYPSDIAVEWESNGQPENNYKTTPPVLDSDGSFFLVSKLTVDKSRWQQGNVFSCSVMHEALHNHYTQKSLSLSPGK
notes: also called Hole-Hole (Genentech) CH3B chain (yeast), T366S/L368A/Y407V
Consider B2, for which, in test [2], the binding result is on record as “no binding”.

B3: secreted FcCH3B, B240 (D399G/K392G/K409M), from yeast (other)
chain: TSPPSPAPELLGGPSVFLFPPKPKDTLMISRTPEVTCVVVDVSHEDPEVKFNWYVDGVEVHNAKTKPREEQYQSTYRVVSVLTVLHQDWLNGKEYKCKVSNKALPAPIEKTISKAKGQPREPQVYTLPPSRDELTKNQVSLTCLVKGFYPSDIAVEWESNGQPENNYGTTPPVLGSDGSFFLYSMLTVDKSRWQQGNVFSCSVMHEALHNHYTQKSLSLSPGK
notes: also called B240 CH3B chain (yeast); not shown: flag-tag
As to B3, the binding result in test [3] is “binds”.

B4: secreted FcCH3B, B256 (D399V/K392G/K409M), from yeast (other)
chain: TSPPSPAPELLGGPSVFLFPPKPKDTLMISRTPEVTCVVVDVSHEDPEVKFNWYVDGVEVHNAKTKPREEQYQSTYRVVSVLTVLHQDWLNGKEYKCKVSNKALPAPIEKTISKAKGQPREPQVYTLPPSRDELTKNQVSLTCLVKGFYPSDIAVEWESNGQPENNYGTTPPVLVSDGSFFLYSMLTVDKSRWQQGNVFSCSVMHEALHNHYTQKSLSLSPGK
notes: also called B256 CH3B chain (yeast); not shown: flag-tag
Consider B4, for which the binding result in test [4] was “binds”.
